Columns and labels:
Q2XVP4 [1] = assay: cryo-EM structure; single-particle cryo-EM of porcine tubulin incubated with GDP on ice, peak fraction of gel filtration (Superdex 200 Increase 3.2/300), 1-2 μM on graphene grids, no cofactors or depolymerizing reagents; heterodimer maps at 3.6 Å and 3.9 Å; tetramers by 2D and 3D classification …
Q2XVP4 [2] = assay: cryo-EM structure; single-particle cryo-EM of porcine tubulin (5 mg/ml) incubated with 1.5 mM GMPCPP on ice for 20-30 min, peak fraction of gel filtration (Superdex 200 Increase 3.2/300), 1-2 μM on graphene grids, no cofactors or depolymerizing reagents; heterodimer map at 3.5 Å; tetramers by 2D …

Q: Which results are given for porcine αβ-tubulin heterodimer?
A: percent of the particles per micrograph that are tubulin hexamers (three heterodimers) (Q2XVP4 [1]): 62%, 32%, and 6%; percent of the particles per micrograph that are tubulin tetramers (two heterodimers) (Q2XVP4 [1]): 62%, 32%, and 6%; percent of the particles per micrograph that are tubulin hexamers (three heterodimers) (Q2XVP4 [2]): 64%, 29%, and 7%; percent of the particles per micrograph that are tubulin tetramers (two heterodimers) (Q2XVP4 [2]): 64%, 29%, and 7%

— publication PMC10519996
